Here are results for 125 sequences from the supplement of paper PMC9112550, “Optimization of the antimicrobial peptide Bac7 by deep mutational scanning” (BMC Biology, 2022).

In this data set the test system is Escherichia coli TOP10. The experiment in a line: shrunken log2 fold change of peptide-encoding DNA abundance (4.5 h post-induction vs induction); higher = less antimicrobial activity (less host growth inhibition). As to conditions: time post-induction: 4.5 h; library: site-saturation at positions 5, 18, 19, 20.
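Further: peptides expressed intracellularly from a pBAD plasmid library in pooled LB shake-flask culture, induced with 0.3% L-arabinose, DNA abundance read by NGS, three biological replicates, DESeq2 with apeglm shrinkage.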

RRIRRRPPRLPRPRPRPDWPPRP: the “shrunken log2 fold change” value was 0.556.

With RRIRMRPPRLPRPRPRPFYVPRP, the “shrunken log2 fold change” value is -0.514. The figure for RRIRFRPPRLPRPRPRPHFDPRP is -0.107. The figure for RRIRPRPPRLPRPRPRPYHSPRP is -0.659; for RRIRWRPPRLPRPRPRPPGIPRP it is 0.41; for RRIRGRPPRLPRPRPRPKGYPRP it is 0.214. The figure for RRIRYRPPRLPRPRPRPFVMPRP is -1.07; for RRIRNRPPRLPRPRPRPYSMPRP it is -0.292. For RRIRARPPRLPRPRPRPKCAPRP, the “shrunken log2 fold change” value was determined as 0.363. As for RRIRERPPRLPRPRPRPLPSPRP, the “shrunken log2 fold change” value was -0.0852.

As for RRIRNRPPRLPRPRPRPHEAPRP, the “shrunken log2 fold change” value is -0.0663. The figure for RRIRPRPPRLPRPRPRPLHWPRP is 0.481; for RRIRIRPPRLPRPRPRPVPMPRP it is -0.143; for RRIRERPPRLPRPRPRPYLRPRP it is -0.319.

On to RRIRGRPPRLPRPRPRPHIHPRP, for which the “shrunken log2 fold change” value is -0.0259. The figure for RRIRFRPPRLPRPRPRPNHHPRP is -1.02.

In the case of RRIRIRPPRLPRPRPRPETAPRP, the “shrunken log2 fold change” value is 0.0478. The figure for RRIRHRPPRLPRPRPRPNTFPRP is -0.00529; for RRIRFRPPRLPRPRPRPFHCPRP it is -0.102. The figure for RRIRLRPPRLPRPRPRPYDGPRP is 0.0118; for RRIRLRPPRLPRPRPRPDWPPRP it is -0.0804; for RRIRVRPPRLPRPRPRPTAEPRP it is 0.0994. The figure for RRIRSRPPRLPRPRPRPCKNPRP is -0.283; for RRIRWRPPRLPRPRPRPFLVPRP it is -0.293; for RRIRERPPRLPRPRPRPIINPRP it is -0.702. Turning to RRIRARPPRLPRPRPRPSYSPRP, the “shrunken log2 fold change” value was -0.349.

In the case of RRIRHRPPRLPRPRPRPGVRPRP, the “shrunken log2 fold change” value came out at 0.175. The figure for RRIRVRPPRLPRPRPRPSYAPRP is -0.477; for RRIRCRPPRLPRPRPRPKRWPRP it is 0.627; for RRIRHRPPRLPRPRPRPKKRPRP it is -0.163. The figure for RRIRARPPRLPRPRPRPVAVPRP is 0.445. The figure for RRIRDRPPRLPRPRPRPFHAPRP is -0.108; for RRIRMRPPRLPRPRPRPMHRPRP it is -0.156. Regarding RRIRNRPPRLPRPRPRPKYVPRP, the “shrunken log2 fold change” value was -0.00968.

For RRIRPRPPRLPRPRPRPYNRPRP, the “shrunken log2 fold change” value is -0.0087. RRIRRRPPRLPRPRPRPLFFPRP: the “shrunken log2 fold change” value is 0.137. The figure for RRIRQRPPRLPRPRPRPWEIPRP is -0.00822; for RRIRMRPPRLPRPRPRPRGDPRP it is 1.73. The figure for RRIRTRPPRLPRPRPRPMWIPRP is -0.222. The figure for RRIRFRPPRLPRPRPRPKEHPRP is -0.357; for RRIRWRPPRLPRPRPRPARYPRP it is -0.0422; for RRIRARPPRLPRPRPRPCCMPRP it is -0.0671. On to RRIRPRPPRLPRPRPRPPWCPRP, for which the “shrunken log2 fold change” value stood at 0.0891. The figure for RRIRQRPPRLPRPRPRPDDFPRP is -0.0929; for RRIRGRPPRLPRPRPRPYQWPRP it is 0.0268; for RRIRARPPRLPRPRPRPHFRPRP it is 0.166.

RRIRLRPPRLPRPRPRPKRKPRP: the “shrunken log2 fold change” value was -0.314. The figure for RRIRVRPPRLPRPRPRPEFNPRP is 0.203; for RRIRQRPPRLPRPRPRPKWQPRP it is 0.0435; for RRIRPRPPRLPRPRPRPKNTPRP it is -0.218. The figure for RRIRHRPPRLPRPRPRPTFEPRP is 0.0452.

Consider RRIRSRPPRLPRPRPRPANSPRP, for which the “shrunken log2 fold change” value was -0.564. The figure for RRIRYRPPRLPRPRPRPEHWPRP is -0.0026. The figure for RRIRCRPPRLPRPRPRPQGWPRP is -0.0139; for RRIRIRPPRLPRPRPRPTMNPRP it is -1.01.

For the sequence RRIRQRPPRLPRPRPRPMAVPRP, the “shrunken log2 fold change” value was 0.00724.

For RRIRLRPPRLPRPRPRPVGEPRP, the “shrunken log2 fold change” value amounted to 0.12. The figure for RRIRCRPPRLPRPRPRPTPLPRP is 0.522; for RRIRDRPPRLPRPRPRPVIIPRP it is -0.316; for RRIRHRPPRLPRPRPRPSACPRP it is -0.0435.

Turning to RRIRRRPPRLPRPRPRPTYRPRP, the “shrunken log2 fold change” value was 0.309.

For the sequence RRIRERPPRLPRPRPRPTFAPRP, the “shrunken log2 fold change” value is -0.0119. The figure for RRIRIRPPRLPRPRPRPMMSPRP is -0.00118; for RRIRIRPPRLPRPRPRPISHPRP it is -0.0541; for RRIRWRPPRLPRPRPRPNYGPRP it is -0.281. The figure for RRIRWRPPRLPRPRPRPDHAPRP is 0.391.

RRIRGRPPRLPRPRPRPVSWPRP: the “shrunken log2 fold change” value was 1.06. The figure for RRIRDRPPRLPRPRPRPHNNPRP is -0.604.

With RRIRLRPPRLPRPRPRPYVRPRP, the “shrunken log2 fold change” value came out at 0.0394. RRIRGRPPRLPRPRPRPIPVPRP: the “shrunken log2 fold change” value came to 0.0104. The figure for RRIRLRPPRLPRPRPRPVQQPRP is 0.053.

With RRIRWRPPRLPRPRPRPAAFPRP, the “shrunken log2 fold change” value turned out to be 0.334. Take RRIRNRPPRLPRPRPRPHQCPRP: the “shrunken log2 fold change” value was -0.0318. The figure for RRIRHRPPRLPRPRPRPLCGPRP is -0.302. With RRIRARPPRLPRPRPRPAQNPRP, the “shrunken log2 fold change” value turned out to be 0.333. RRIRNRPPRLPRPRPRPETTPRP: the “shrunken log2 fold change” value was 0.0795. The figure for RRIRWRPPRLPRPRPRPQMNPRP is -0.243.

Regarding RRIRHRPPRLPRPRPRPKGRPRP, the “shrunken log2 fold change” value was 0.0526.

In the case of RRIRHRPPRLPRPRPRPLGQPRP, the “shrunken log2 fold change” value stood at 0.0866. As to RRIRFRPPRLPRPRPRPDIWPRP, the “shrunken log2 fold change” value was -0.273. On to RRIRRRPPRLPRPRPRPYREPRP, for which the “shrunken log2 fold change” value was -0.344. The figure for RRIRGRPPRLPRPRPRPWWWPRP is 0.152; for RRIRPRPPRLPRPRPRPMLIPRP it is -0.553; for RRIRGRPPRLPRPRPRPRVGPRP it is 1.02. The figure for RRIRMRPPRLPRPRPRPNMNPRP is -0.056.

Take RRIRCRPPRLPRPRPRPYIEPRP: the “shrunken log2 fold change” value is -1.03. The figure for RRIRCRPPRLPRPRPRPKMPPRP is 0.0277.

Turning to RRIRNRPPRLPRPRPRPPQCPRP, the “shrunken log2 fold change” value is -0.000221. The figure for RRIRGRPPRLPRPRPRPFKHPRP is -0.527. The figure for RRIRTRPPRLPRPRPRPNMAPRP is -0.155; for RRIRCRPPRLPRPRPRPYNLPRP it is -0.986. The figure for RRIRDRPPRLPRPRPRPNYWPRP is -0.218; for RRIRNRPPRLPRPRPRPQPIPRP it is 0.14; for RRIRIRPPRLPRPRPRPFGMPRP it is -0.498. Consider RRIRERPPRLPRPRPRPQDTPRP, for which the “shrunken log2 fold change” value amounted to 2.38. The figure for RRIRHRPPRLPRPRPRPITAPRP is -0.303; for RRIRLRPPRLPRPRPRPLCDPRP it is -0.284; for RRIRRRPPRLPRPRPRPLCMPRP it is -0.126. Regarding RRIRGRPPRLPRPRPRPFPNPRP, the “shrunken log2 fold change” value came to 0.26.

Take RRIRQRPPRLPRPRPRPKWLPRP: the “shrunken log2 fold change” value was found to be 0.0992. The figure for RRIRDRPPRLPRPRPRPLSGPRP is -0.0838; for RRIRHRPPRLPRPRPRPLGWPRP it is 0.708. The figure for RRIRARPPRLPRPRPRPWGDPRP is 0.376. The figure for RRIRSRPPRLPRPRPRPTNTPRP is 0.0794; for RRIRNRPPRLPRPRPRPSYTPRP it is -1.13. RRIRHRPPRLPRPRPRPCSCPRP: the “shrunken log2 fold change” value was -0.0391. RRIRTRPPRLPRPRPRPFYHPRP: the “shrunken log2 fold change” value was -0.486. With RRIRHRPPRLPRPRPRPRRRPRP, the “shrunken log2 fold change” value turned out to be 0.0874. The figure for RRIRTRPPRLPRPRPRPNDKPRP is -0.605; for RRIRNRPPRLPRPRPRPFYPPRP it is -0.5; for RRIRQRPPRLPRPRPRPNSVPRP it is -0.265. The figure for RRIRTRPPRLPRPRPRPMPNPRP is -0.17; for RRIRDRPPRLPRPRPRPTVTPRP it is 0.853. The figure for RRIRPRPPRLPRPRPRPFFNPRP is -0.365; for RRIRARPPRLPRPRPRPQHKPRP it is 0.292; for RRIRMRPPRLPRPRPRPPAMPRP it is 1.02.

RRIRWRPPRLPRPRPRPCWHPRP: the “shrunken log2 fold change” value is -0.259. As for RRIRIRPPRLPRPRPRPPSDPRP, the “shrunken log2 fold change” value is -0.101. The figure for RRIRKRPPRLPRPRPRPEMDPRP is 0.0842; for RRIRMRPPRLPRPRPRPRHYPRP it is -0.0487. The figure for RRIRCRPPRLPRPRPRPEVKPRP is 0.149. The figure for RRIRCRPPRLPRPRPRPCCWPRP is 0.103; for RRIRSRPPRLPRPRPRPFLFPRP it is -0.329.

For RRIRLRPPRLPRPRPRPMHDPRP, the “shrunken log2 fold change” value was -0.134. The figure for RRIRVRPPRLPRPRPRPPWRPRP is 0.57.
